The source of these data is publication PMC8575500.

This experiment has as its target C12-AcpP (Escherichia coli acyl carrier protein AcpP, wt, carrying a C12 acyl chain) (Escherichia coli) (UniProt P0A6A8).
Chain of UniProt P0A6A8 (P0A6A8 whole entry): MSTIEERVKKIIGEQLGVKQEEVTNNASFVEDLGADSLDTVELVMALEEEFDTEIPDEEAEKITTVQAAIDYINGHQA
“Escherichia coli FabF K65A/K69A (enzyme)” gave a completion of the reaction after 10 min, from the remaining C12-AcpP by HPLC of 65%.
With “Escherichia coli FabF K65A/R68A/K69A (enzyme)” the figure was 15%; with “Escherichia coli FabF K65A/R127A/K128A (enzyme)”, 44%.
For the substance “Escherichia coli FabF R127A/K128A/R206A (enzyme)”, the completion of the reaction after 10 min, from the remaining C12-AcpP by HPLC was 13%.
Substance Escherichia coli FabF R206A (enzyme) yielded a completion of the reaction after 10 min, from the remaining C12-AcpP by HPLC of 39%.
